Results: PMC10899662, “TopBP1 utilises a bipartite GINS binding mode to support genome replication” (Nature Communications, 2024)

Tested on: chromatin-bound replication proteins
Experiment: Chromatin mass spectrometry (CHROMASS) from TopBP1-depleted Xenopus egg extracts
Type: biochemical, Xenopus laevis
Conditions: mass spectrometry and immunoblotting; 75 min after starting replication, aphidicolin added, TopBP1 6 ng/µl; n = 4 for MS
Description: Fig. 6 GINS binding to TopBP1 is required for the origin firing step of replication. a–c Heat map showing the intensity of chromatin-bound proteins recovered from TopBP1-depleted interphase Xenopus egg extracts supplemented wild type or mutant TopBP1 determined by quantitative mass spectrometry. Chromatin was isolated 75 min after sperm addition. All extracts contained […] aphidicolin and, where indicated, […] geminin. […] For the intensities of all proteins see Supplementary Data 2. b, c Volcano plots highlighting a selection of differentially detected proteins in samples described in (a). Log2 transformed LFQ intensities from four replicates each were analysed by a two-sided Student’s t-test. […] Coomassie staining of the gel part containing histones served as a loading control.
For chromatin isolation, XTopBP1-depleted interphase egg extract was supplemented with 50 µg/ml aphidicolin and aliquoted into 15 µl samples before addition of buffer or recombinant TopBP1 to a final concentration 6 ng/µl. 2.25 µM Xgeminin or buffer were added before incubation for 10 min on ice. To start the replication, 9 ng sperm DNA/µl extract was added and incubated for 75 min at 23 °C. […] For MS analysis, four biological replicates of chromatin pellets were analysed by CHROMASS[45]. […]

B1: TopBP1-BRCT0-5-WT: recombinant TopBP1 amino acids 1–766, strep-tagged (protein)
chain: MSRNDKEPFFVKFLKSSDNSKCFFKALESIKEFQSEEYLQIITEEEALKIKENDRSLYICDPFSGVVFDHLKKLGCRIVGPQVVIFCMHHQRCVPRAEHPVYNMVMSDVTISCTSLEKEKREEVHKYVQMMGGRVYRDLNVSVTHLIAGEVGSKKYLVAANLKKPILLPSWIKTLWEKSQEKKITRYTDINMEDFKCPIFLGCIICVTGLCGLDRKEVQQLTVKHGGQYMGQLKMNECTHLIVQEPKGQKYECAKRWNVHCVTTQWFFDSIEKGFCQDESIYKTEPRPEAKTMPNSSTPTSQINTIDSRTLSDVSNISNINASCVSESICNSLNSKLEPTLENLENLDVSAFQAPEDLLDGCRIYLCGFSGRKLDKLRRLINSGGGVRFNQLNEDVTHVIVGDYDDELKQFWNKSAHRPHVVGAKWLLECFSKGYMLSEEPYIHANYQPVEIPVSHKPESKAALLKKKNSSFSKKDFAPSEKHEQADEDLLSQYENGSSTVVEAKTSEARPFNDSTHAEPLNDSTHISLQEENQSSVSHCVPDVSTITEEGLFSQKSFLVLGFSNENESNIANIIKENAGKIMSLLSRTVADYAVVPLLGCEVEATVGEVVTNTWLVTCIDYQTLFDPKSNPLFTPVPVMTGMTPLEDCVISFSQCAGAEKESLTFLANLLGASVQEYFVRKSNAKKGMFASTHLILKERGGSKYEAAKKWNLPAVTIAWLLETARTGKRADESHFLIENSTKEERSLETEITNGINLNSDTAEHP
modifications: left off: Strep, C-terminal, kept
notes: recombinant TopBP1 amino acids 1–766, strep-tagged
  chromatin binding of replisome markers / Mcm2-7: Several replisome markers, including GINS and Cdc45, were detected on chromatin
